The numbers were not newly measured in PMC3849016, which cites them from elsewhere.

The target in this data set is VEGFR2 (vascular endothelial growth factor receptor 2) (UniProt P35968). The settings on record: printed Z = 5-N-(benzylcarboxyamide)-2'-deoxyuridine (BzdU), written here as U at every Z; all other residues are DNA; 5' H2N-C6; not stated for the supplier ….
Chain of UniProt P35968 (P35968 whole entry): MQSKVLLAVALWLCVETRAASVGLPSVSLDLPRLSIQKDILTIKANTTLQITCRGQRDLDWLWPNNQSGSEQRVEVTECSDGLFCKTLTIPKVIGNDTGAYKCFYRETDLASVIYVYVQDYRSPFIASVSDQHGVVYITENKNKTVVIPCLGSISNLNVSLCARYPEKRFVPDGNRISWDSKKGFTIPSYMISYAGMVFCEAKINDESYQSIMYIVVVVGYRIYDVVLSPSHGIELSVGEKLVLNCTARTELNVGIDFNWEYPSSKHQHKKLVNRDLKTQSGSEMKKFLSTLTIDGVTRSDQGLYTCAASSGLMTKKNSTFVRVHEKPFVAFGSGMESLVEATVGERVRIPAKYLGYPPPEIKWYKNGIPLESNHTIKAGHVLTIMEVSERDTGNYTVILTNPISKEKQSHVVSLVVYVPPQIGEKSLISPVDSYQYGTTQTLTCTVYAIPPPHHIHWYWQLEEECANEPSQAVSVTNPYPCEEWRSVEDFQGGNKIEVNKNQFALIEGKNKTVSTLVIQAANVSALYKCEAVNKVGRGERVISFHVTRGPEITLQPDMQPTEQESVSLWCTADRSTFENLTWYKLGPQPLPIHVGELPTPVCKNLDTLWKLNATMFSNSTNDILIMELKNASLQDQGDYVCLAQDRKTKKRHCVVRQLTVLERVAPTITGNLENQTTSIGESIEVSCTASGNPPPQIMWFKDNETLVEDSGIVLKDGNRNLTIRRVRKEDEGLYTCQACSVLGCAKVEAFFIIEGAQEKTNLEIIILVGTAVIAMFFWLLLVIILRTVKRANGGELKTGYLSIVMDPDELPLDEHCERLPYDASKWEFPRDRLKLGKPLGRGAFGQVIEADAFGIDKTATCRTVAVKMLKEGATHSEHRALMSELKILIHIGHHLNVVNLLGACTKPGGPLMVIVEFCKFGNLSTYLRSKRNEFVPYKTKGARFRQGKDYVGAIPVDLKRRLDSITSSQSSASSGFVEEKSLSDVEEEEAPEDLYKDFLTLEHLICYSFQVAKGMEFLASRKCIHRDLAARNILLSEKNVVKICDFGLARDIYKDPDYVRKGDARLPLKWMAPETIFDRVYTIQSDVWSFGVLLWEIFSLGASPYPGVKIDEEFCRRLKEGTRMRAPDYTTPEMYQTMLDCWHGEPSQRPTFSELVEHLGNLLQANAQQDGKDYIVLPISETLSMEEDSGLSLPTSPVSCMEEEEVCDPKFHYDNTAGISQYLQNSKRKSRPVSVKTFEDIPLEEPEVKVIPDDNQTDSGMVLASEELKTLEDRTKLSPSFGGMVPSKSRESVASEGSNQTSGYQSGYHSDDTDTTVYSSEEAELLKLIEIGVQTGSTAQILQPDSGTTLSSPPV

With “ACGAGCUACGACGUCUGGUGUAAUUUAUAAAGACACUGUGUAUAUCAACAA [anti-VEGFR2 DNA aptamer (Aptamer Science Cat. 186)]”, the dissociation constant (Kd) was 0.12 nM.
